These results are taken from paper PMC7897482, “Ecd promotes U5 snRNP maturation and Prp8 stability” (Nucleic Acids Research, 2021).

The target in the experiment is T1, His::Ecd (Drosophila melanogaster, UniProt Q9W032 1-684).
T1 construct: Ecdysoneless (Ecd), Drosophila melanogaster; cDNA cloned into pET28b; also called His-tagged Ecd; source: E. coli BL21 Rosetta (DE3), purified (Ni Sepharose)
T1 sequence (looked up): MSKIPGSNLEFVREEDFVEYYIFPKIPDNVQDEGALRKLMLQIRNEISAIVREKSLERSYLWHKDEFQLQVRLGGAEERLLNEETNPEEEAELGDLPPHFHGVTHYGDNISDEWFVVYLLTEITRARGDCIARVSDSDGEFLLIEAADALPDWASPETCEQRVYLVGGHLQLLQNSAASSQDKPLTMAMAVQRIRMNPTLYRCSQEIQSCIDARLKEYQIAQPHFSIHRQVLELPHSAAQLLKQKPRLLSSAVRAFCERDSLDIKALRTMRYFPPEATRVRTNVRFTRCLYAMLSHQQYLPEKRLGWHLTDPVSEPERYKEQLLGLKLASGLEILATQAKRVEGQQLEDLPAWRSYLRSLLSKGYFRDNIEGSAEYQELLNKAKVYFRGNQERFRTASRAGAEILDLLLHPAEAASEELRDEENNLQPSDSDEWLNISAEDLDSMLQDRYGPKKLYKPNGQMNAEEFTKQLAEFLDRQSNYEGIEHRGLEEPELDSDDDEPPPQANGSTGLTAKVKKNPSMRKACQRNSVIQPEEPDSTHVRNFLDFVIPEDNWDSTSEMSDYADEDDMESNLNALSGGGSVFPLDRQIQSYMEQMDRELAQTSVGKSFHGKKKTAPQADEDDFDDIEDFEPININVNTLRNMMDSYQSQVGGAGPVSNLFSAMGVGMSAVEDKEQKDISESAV
Kind of experiment: pull-down; 10 μg of purified His::Ecd and His::SmD3::HA incubated alone or together overnight at 4°C with protein G Dynabeads coupled to rat anti-Ecd N-term antibody; western blot. Particulars: both partners purified.

B1: His::SmD3::HA (natural protein, Drosophila melanogaster, UniProt O44437 1-151, looked up)
chain: MSIGVPIKVLHEAEGHIITCETITGEVYRGKLIEAEDNMNCQMTQITVTYRDGRTANLENVYIRGSKIRFLILPDMLKNAPMFKKQTGKGLGGTAGRGKAAILRAQARGRGRGGPPGGGRGTGGPPGAPGGSGGRGAWQGGPTGGRGRGGL
notes: Sm ring protein SmD3, Drosophila melanogaster; cDNA cloned into Gateway pDEST17; also called His-tagged SmD3; source: E. coli BL21 Rosetta (DE3), purified (Ni Sepharose)
With B1, the binding result is recorded as “binds”.
